Reference: article PMC10402242

Target: nuclear transport factor 2 (NUTF2) (human (endogenous in MCF-7)) (UniProt P61970)
Experiment: native MS; native top-down proteomics: whole cell lysates of MCF-7 and MCF-7-EGFR (EGFR-overexpressing) cells fractionated by native SEC, concentrated with molecular weight cutoff filters, direct ESI infusion FAIMS-MSn with HCD, Orbitrap detection; endogenous assemblies

Sequence of nuclear transport factor 2 (NUTF2) (P61970 whole entry): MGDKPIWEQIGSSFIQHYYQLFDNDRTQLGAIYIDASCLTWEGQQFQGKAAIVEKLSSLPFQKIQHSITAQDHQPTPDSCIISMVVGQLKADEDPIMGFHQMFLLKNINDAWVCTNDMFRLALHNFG

stoichiometry N: 2
Substance: nuclear transport factor 2 (NUTF2) (from UniProt P61970 1-127) (natural protein; monomeric proteoforms include acetylated, methylated and dimethylated forms (sites K4, K55, K63); monomeric proteoforms include acetylated, methylated and dimethylated forms (sites K4, K55, K63); other documents disagree on this pair)
